Measured values from PMC7948415.

Legend:
properdin (human) = properdin (human) (UniProt P27918); assay: SPR; Biacore T100; properdin amine-coupled to a CM5 chip (5000 RU); C3b (20 μg/ml), factor B (20 μg/ml) and factor D (2 μg/ml) in HBS/MgCl2 injected at 30 μl/min for 120 s without or with SG7.AF, albicin or anophensin (Fig. 9C: 56.8 nM C3b, 107.5 nM factor B, 41.7 nM factor D, inhibitors 1 μM); dissociation at 1 μM inhibitor fitted to a double exponential decay
[1] = target: variant of anophensin with the N-terminus extended by the retention of three amino acids from the signal peptide (Anopheles stephensi) (UniProt A5HUP6); assay: crystal structure; lengthened anophensin, space group P2_(1)2_(1)2, three monomers in the asymmetric unit, SAD with a selenomethionine derivative

Chain of properdin (human) (P27918 28-469): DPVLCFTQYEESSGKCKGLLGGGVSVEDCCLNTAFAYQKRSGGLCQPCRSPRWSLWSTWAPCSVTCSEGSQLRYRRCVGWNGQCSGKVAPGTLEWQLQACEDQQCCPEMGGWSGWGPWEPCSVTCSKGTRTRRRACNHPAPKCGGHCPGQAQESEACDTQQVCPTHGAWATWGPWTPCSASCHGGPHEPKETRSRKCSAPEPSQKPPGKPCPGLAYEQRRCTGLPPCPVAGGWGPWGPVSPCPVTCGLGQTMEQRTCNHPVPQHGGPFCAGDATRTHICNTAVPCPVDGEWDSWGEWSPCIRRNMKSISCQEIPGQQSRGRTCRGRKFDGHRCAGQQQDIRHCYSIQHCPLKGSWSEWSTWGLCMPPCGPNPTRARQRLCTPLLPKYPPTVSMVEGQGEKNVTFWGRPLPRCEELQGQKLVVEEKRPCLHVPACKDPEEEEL

## SG7.AF-bound C3bBb complex (from UniProt P01024 749-1663; P01024 749-1663; P00751 260-764; C0HMB5 1-119)
Properdin (human)
  koff, fast phase of a double exponential decay: 0.02 s⁻¹
  koff, slow phase of a double exponential decay: 0.003 s⁻¹

## albicin-bound C3bBb complex (from UniProt P01024 749-1663; P01024 749-1663; P00751 260-764; A0A1Y9G8D0 27-142)
Properdin (human)
  koff, fast phase of a double exponential decay: 0.02 s⁻¹
  koff, slow phase of a double exponential decay: 0.003 s⁻¹

## variant of anophensin with the N-terminus extended by the retention of three amino acids from the signal peptide (from UniProt A5HUP6 28-142) (natural protein)
[1]
  stoichiometry N: 2
